# Assay results taken from patent US20210163624A1 (Memorial Sloan Kettering, published 2021).
# B1: mAb 15 (mAb clone 15) (antibody, V domains shown)
# VH: QVQLVQSGAEVKKPGESLKISCKGSGYNFSNKWIGWVRQLPGRGLEWIAIIYPGYSDITYSPSFQGRVTISADTSINTAYLHWHSLKASDTAMYYCVRHTALAGFDYWGLGTLVTVSS
# VL: DIQMTQSPSTLSASVGDRVTITCRASQNINKWLAWYQQRPGKAPQLLIYKASSLESGVPSRFSGSGSGTEYTLTISSLQPDDFATYYCQQYNSYATFGQGTKVEIKR
# notes: The legends call it mAb 15 or clone 15; also called Ext002 #15
# B2: scFv phage clone 18 (scFv)
# scFv: QSVVTQPPSVSVAPGKTARITCGRNNIGSKSVHWYQQKPGQAPVLVVYDDSDRPSGIPERFSGSNSGNTATLTISRVEAGDEADYYCQVWDSSSDHVVFGGGTKLTVLGSRGGGGSGGGGSGGSLEMAEVQLVQSGGGVVRPGGSLRLSCAASGFTFDDYGMSWVRQAPGKGLEWVSGINWNGGSTGYADSVRGRFTISRDNAKNSLYLQMNSLRAEDTALYYCARERGYGYHDPHDYWGQGTLVTVSS
# notes: also called Ext002 #18
# B3: mAb 5 (mAb clone 5) (antibody, V domains shown)
# VH: QVQLQQSGPGLVKPSQTLSLTCAISGDSVSSNSAAWNWIRQSPSRGLEWLGRTYYGSKWYNDYAVSVKSRITINPDTSKNQFSLQLNSVTPEDTAVYYCARGRLGDAFDIWGQGTMVTVSS
# VL: not shown
# notes: The legends call it mAb 5 or mAb clone 5; also called Ext002 #5
# B4: WT1 ab1, full-length human IgG1 (antibody, V domains shown)
# VH: QMQLVQSGAEVKEPGESLRISCKGSGYSFTNFWISWVRQMPGKGLEWMGRVDPGYSYSTYSPSFQGHVTISADKSTSTAYLQWNSLKASDTAMYYCARVQYSGYYDWFDPWGQGTLVTVSS
# VL: not shown
# notes: No single sentence says that WT1 ab1 is clone #13; also called Mab WT1 ab1; ESK1
# B5: scFv phage clone 15 (scFv)
# scFv: DIQMTQSPSTLSASVGDRVTITCRASQNINKWLAWYQQRPGKAPQLLIYKASSLESGVPSRFSGSGSGTEYTLTISSLQPDDFATYYCQQYNSYATFGQGTKVEIKRSRGGGGSGGGGSGGGGSLEMAQVQLVQSGAEVKKPGESLKISCKGSGYNFSNKWIGWVRQLPGRGLEWIAIIYPGYSDITYSPSFQGRVTISADTSINTAYLHWHSLKASDTAMYYCVRHTALAGFDYWGLGTLVTVSS
# notes: also called Ext002 #15
# B6: scFv phage clone 23 (scFv)
# scFv: QSVLTQPPSVSGAPGQRVTISCTGSSSNIGAGYDVHWYQQLPGTAPKLLIYGNSNRPSGVPDRFSGSKSGTSASLAISGLQSEDEADYYCAAWDDSLNGYVFGTGTKLTVLGSRGGGGSGGGGSGGGGSLEMAEVQLVETGGGLLQPGGSLRLSCAASGFSVSGTYMGWVRQAPGKGLEWVALLYSGGGTYHPASLQGRFIVSRDSSKNMVYLQMNSLKAEDTAVYYCAKGGAGGGHFDSWGQGTLVTVSS
# notes: also called Ext002 #23; EXT002-23
# B7: scFv phage clone 3 (scFv)
# scFv: QTVVTQPPSASGTPGQRVTISCSGSSSNIGSNYVYWYQQLPGTAPKLLIYRSNQRPSGVPDRFSGSKSGTSASLAISGPRSVDEADYYCAAWDDSLNGVVFGGGTKLTVLGSRGGGGSGGGGSGGGSLEMAQVQLVQSGAEVKKPGSSVKVSCKASGGTFSSYAISWVRQAPGQGLEWMGGIIPIFGTANYAQKFQGRVTITADESTSTAYMELSSLRSEDTAVYYCARRIPPYYGMDVWGQGTTVTVSS
# notes: also called Ext002 #3; EXT002-3
# What was measured:
# [1] = biological target: T1, Biotinylated single chain WT1 peptide/HLA-A0201 complex (recombinant, refolded) (human, biotinylated (site not stated)); assay: kinetic binding analysis, sensorgram in nm against time (sec) with fit; column ka [1/Ms]
# T1 construct: also called WT1/A2; HLA-A0201/WT1 peptide complex
# [2] = biological target: T1, Biotinylated single chain WT1 …; assay: kinetic binding analysis, sensorgram in nm against time (sec) with fit; column kd [1/s]; Error in kd 2.25E-5
# [3] = biological target: T1, Biotinylated single chain WT1 …; assay: kinetic binding analysis, sensorgram in nm against time (sec) with fit; column kD [M]
# [4] = biological target: T2, RMF peptide (…)/HLA-A0201 complex on the cell surface (human); assay: flow cytometry, scFv phage on T2 cells pulsed with WT1A peptide; scFv phage on T2 cells pulsed with WT1-A (RMF) peptide, 50 µg/ml
# T2 construct: Either on T2 cells pulsed with the synthetic peptide, or naturally processed and presented on WT1+ HLA-A0201+ tumour cells; The assay field of each row says which; also called WT1p/A2 complex; WT1/A2
# [5] = biological target: T3, HLA-A0201 molecule on T2 cells alone (no peptide pulsed) (human); assay: flow cytometry, scFv phage on T2 cells without peptide
# T3 construct: No exogenous peptide; It is also the MHC partner in the T2 stabilization assay; also called T2 alone; HLA-A2 molecule
# [6] = biological target: T4, RHAMM-R3 peptide/HLA-A0201 complex on T2 cells (human); assay: flow cytometry, scFv phage on T2 cells pulsed with RHAMM-3 peptide
# T4 construct: also called RHAMM-3; R3/HLAA0201
# [7] = biological target: T3, HLA-A0201 molecule on T2 cells alone …; assay: flow cytometry, live T2 cells without peptide (0 µg/ml group)
# [8] = biological target: T1, Biotinylated single chain WT1 …; assay: kinetic binding analysis, sensorgram in nm against time (sec) with fit; column kd [1/s]; Error in kd 1.12E-4
# [9] = biological target: T5, WT1-A1 heteroclitic peptide (tyrosine at position 1 of RMF)/HLA-A0201 complex on T2 cells (human); assay: flow cytometry, live T2 cells pulsed with graded WT1-A1 peptide
# [10] = biological target: T4, RHAMM-R3 peptide/HLA-A0201 complex on …; assay: flow cytometry, live T2 cells pulsed with graded RHAMM-R3 peptide
# [11] = biological target: T3, HLA-A0201 molecule on T2 cells alone …; assay: flow cytometry, T2 cells without peptide (0 µg/ml point)
# [12] = biological target: T2, RMF peptide (…)/HLA-A0201 complex on …; assay: radioimmunoassay with 125-I-labeled WT1 ab1 on JMN cells, Scatchard analysis (bivalent IgG1, avidity)
# [13] = biological target: T5, WT1-A1 heteroclitic peptide (tyrosine …); assay: flow cytometry, T2 cells pulsed with WT1-A1 peptide
# [14] = biological target: T6, EW peptide/HLA-A0201 complex on T2 cells (human); assay: flow cytometry on T2 cells pulsed with EW peptide
# T6 construct: also called Ewing sarcoma-derived peptide
# [15] = biological target: T4, RHAMM-R3 peptide/HLA-A0201 complex on …; assay: flow cytometry, T2 cells pulsed overnight with graded RHAMM-R3 peptide
# [16] = biological target: WT1A1-B peptide (…)/HLA-A0201 complex on T2 cells (human); assay: flow cytometry, T2 cells pulsed with WT1-A1-B peptide
# [17] = biological target: T3, HLA-A0201 molecule on T2 cells alone …; assay: T2 stabilization assay, HLA-A2 detected with mAb BB7
# [18] = biological target: T4, RHAMM-R3 peptide/HLA-A0201 complex on …; assay: phage ELISA on the recombinant R3/HLA-A0201 complex (R3), not on cells
# [19] = biological target: T2, RMF peptide (…)/HLA-A0201 complex on …; assay: flow cytometry, scFv phage on T2 cells pulsed with WT1A peptide
binder,measurement,setting,value
B1,kon,[1],245000 M⁻¹ s⁻¹
same,koff,[2],0.00188 s⁻¹
same,Kd,[3],7.68 nM
B2,binding result,[4],binds
same,binding result,[5],no binding
same,binding result,[6],no binding
B3,binding result,[7],no binding (tested: mAb concentration not on the sheet)
same,kon,[1],468000 M⁻¹ s⁻¹
same,koff,[8],0.00548 s⁻¹
same,binding result,[9],no binding
same,binding result,[10],no binding
same,Kd,[3],11.7 nM
B4,binding result,[11],no binding (tested: mAb 1 µg/ml)
same,Kd,[12],~0.2 nM
same,binding result,[13],no binding (tested: mAb concentration not on the sheet)
same,binding result,[14],no binding
same,binding result,[15],no binding (tested: mAb 1 µg/ml; peptide 50 µg/ml)
same,binding result,[16],no binding (tested: mAb concentration not on the sheet)
B5,binding result,[4],binds
same,binding result,[5],no binding
AMFPNAPYL [WT1A1-B peptide (AMFPNAPYL)],binding result,[17],binds
YMFPNAPYL [WT1-A1 heteroclitic peptide (tyrosine at position 1 of RMF)],binding result,[17],binds
B6,binding result,[4],binds
same,binding result,[5],no binding
same,binding result,[18],no binding
B7,binding result,[5],no binding
same,binding result,[6],no binding
same,binding result,[19],binds
